Experimental findings from PMC8104898 are described below.

The test has as its target fibronectin fragment FN7-10 (type III domains 7 to 10), wild type. Kind of test: ELISA. In general terms: In an ELISA, binding on a coated surface is turned into a signal by an enzyme label.

In turn, “recombinant integrin α5(N275A)β1 ectodomain, unclasped (from UniProt P08648;P05556) (complex)” returned a reduction of binding against the wild-type ectodomain of 60%.
